“And” between values parts separate entries of the source, which are not always exact repeats. Equal values may be shown once. Read-outs that look alike come from different tables or passages of the source. Each block holds one molecule with its values, some of them ahead of it.
Experiments:
Go [1] = biological target: T1, Go (Bos taurus, UniProt P08239)
Description: Trimeric Go was purified to homogeneity from bovine brain as described (Katada et al., FEBS Lett. 213:353-358, 1987). This Go preparation was stored in 20 mM Hepes/NaOH (pH 7.4), 1 mM EDTA, and 0.7% CHAPS, and diluted ≥10 fold for assays.
GTPγS binding to Go was assayed in a buffer containing 50 mM Hepes/NaOH (pH 7.4), 100 μM EDTA, 120 μM MgCl2, and 60 nM [^35 S]GTPγS (DuPont-New England Nuclear) at 37° C., and the fraction of total Go bound to GTPγS was measured as described (Okamoto et al., Cell 62:709-717, 1990). […] The total amount of Go in a given preparation was defined as the saturation amount of GTPγS bound to Go following a 30-min incubation of Go with 10 mM Mg^2+ and ≥60 nM GTPγS at 30° C.
In the experiment shown in FIG. 1(b), 10 nM Go was incubated with water or 100 μM of each peptide for 2 min, and the amount of GTPγS bound to Go at the end of this period was measured. In the experiment shown in FIG. 1(c), 10nM Go was incubated with water (O) or 100 μM peptide 20 (SEQ ID NO: 1) (.oval-solid.), and GTPγS binding was measured at the indicated times. […] GTPγS binding to Go in the presence or absence of peptide 20 (SEQ ID NO: 1) obeyed first-order kinetics according to the equation
(B is the binding at time t; BT is the total binding observable at infinite time; and kapp is the rate constant for GTPγS binding).
In this experiment, 10 nM Go was incubated with various concentrations of [sequence] (peptide 20, SEQ ID NO: 1; .quadrature.), [sequence] (H-deleted, SEQ ID NO: 14; .diamond.), [sequence] (HH-deleted, SEQ ID NO: 15; .quadrature.), [sequence] (RHLSK-deleted, SEQ ID NO: 16; .diamond-solid.), or [sequence] (KQYTSI-added, SEQ ID NO: 17; .box-solid.), and GTPγS binding to Go at 2 min. was measured.

GS = assay: Effect of peptide on G proteins other than Go: GS; type: biochemical; conditions: data not shown
Text: (§1) Biophys. Acta 161:1280-1285, 1989.

Gi1 = assay: Effect of peptide on G proteins other than Go: Gi1; type: biochemical; conditions: data not shown
Text: as §1

c-Ki-ras p21 = assay: Effect of peptide on low molecular weight G protein c-Ki-ras p21; type: biochemical; conditions: data not shown
Text: as §1

APP-Go complex = biological target: T2, APP-Go complex (Bos taurus, UniProt P08239); assay: 22C11 (anti-APP) immunoprecipitation of APP and co-precipitation of Go from solubilized brain membranes; type: binding, bovine; conditions: 10 μM peptide, FIG. 2d
T2 construct: APP immunoprecipitated with 22C11, co-precipitated Go alpha detected by GC/2
T2 sequence (P08239 whole entry): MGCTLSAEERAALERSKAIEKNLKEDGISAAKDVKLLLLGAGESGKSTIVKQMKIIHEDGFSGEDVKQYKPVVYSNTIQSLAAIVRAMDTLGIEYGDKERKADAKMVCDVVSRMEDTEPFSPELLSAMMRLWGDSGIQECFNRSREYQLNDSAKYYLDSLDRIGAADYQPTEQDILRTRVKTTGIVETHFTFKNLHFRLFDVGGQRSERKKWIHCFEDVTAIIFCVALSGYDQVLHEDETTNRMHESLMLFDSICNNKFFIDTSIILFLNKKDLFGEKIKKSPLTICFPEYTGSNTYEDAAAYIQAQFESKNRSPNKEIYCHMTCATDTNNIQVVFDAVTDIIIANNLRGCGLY
T2 sequence (Q28053 whole entry partner): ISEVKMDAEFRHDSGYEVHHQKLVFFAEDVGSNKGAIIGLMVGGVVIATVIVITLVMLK
T2 sequence (P62871 whole entry partner): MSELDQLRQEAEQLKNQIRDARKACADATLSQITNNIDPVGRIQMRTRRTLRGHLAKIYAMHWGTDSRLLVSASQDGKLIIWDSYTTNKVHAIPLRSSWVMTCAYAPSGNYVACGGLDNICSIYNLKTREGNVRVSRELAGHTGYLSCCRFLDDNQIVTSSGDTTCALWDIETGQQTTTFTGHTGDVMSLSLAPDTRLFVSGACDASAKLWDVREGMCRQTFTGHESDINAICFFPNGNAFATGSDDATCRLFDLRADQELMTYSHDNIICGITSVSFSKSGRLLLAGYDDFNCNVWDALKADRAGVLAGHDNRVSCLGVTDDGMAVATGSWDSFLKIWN
T2 sequence (P63212 1-68 partner): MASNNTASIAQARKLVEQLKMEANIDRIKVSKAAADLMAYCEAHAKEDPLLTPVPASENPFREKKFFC
Description: As a control, 2 μg/ml of rabbit IgG was used. After overnight shaking at 4° C., the immunoprecipitated sample was centrifuged at 5000 rpm for 5 min. The pellet was washed three times with ice-cold buffer C and the final pellet was applied to SDS-PAGE. Electroblotting onto a PVDF sheet was performed as described (Okamoto et al., J. Biol. Chem. 266:1085-1091, 1991). After blocking with PBS containing 2% skim milk and 1% BSA, the sheet was incubated with the first antibody [1 μg/ml of 22C11; 1/1000 dilution of anti-Go α monoclonal antibody GC/2 (DuPont-New England Nuclear); 1/1000 dilution of 1C1, a monoclonal antibody against the C-terminal peptide 677-695 of APP695 ] for 4 h, and then exposed to horseradish peroxidase-conjugated goat IgG reactive for mouse or rabbit immunoglobulins for 2-4 h at room temperature. The antigenic bands were detected with an ECL detection kit (Amersham). YL1/2 (SERA Lab), an anti-tubulin antibody, was used at 1:500 dilution for immunodetection.
In this experiment, solubilized brain membranes were incubated with 22C11-coated beads in the presence of 10 μM peptide 20 (SEQ ID NO: 1; 2nd and 5th lanes) or 10 μM of the control peptide, peptide677-695 of APP (SEQ ID NO: 13; 3rd and 6th lanes), or in the absence of both of these peptides (1st and 4th lanes). In this experiment, an anti-mouse IgG antibody different from that used in (a) was employed.

smg p25A = assay: Effect of peptide on low molecular weight G protein smg p25A; type: biochemical; conditions: data not shown
Text: as §1

Gi3 = assay: Effect of peptide on G proteins other than Go: Gi3; type: biochemical; conditions: data not shown
Text: as §1

Gi2 = assay: Effect of peptide on G proteins other than Go: Gi2; type: biochemical; conditions: data not shown
Text: as §1

Go [2] = biological target: T1, Go; assay: Storage stability of the Go-activating ability of the peptide; type: physicochemical, bovine; conditions: storage at either -4° C. or -20° C.
[3] = tested on: Go reconstituted in phospholipid vesicles; assay: GTPγS binding to Go reconstituted in phospholipid vesicles; type: biochemical, bovine; conditions: FIG. 1(e)
Description: as §1
GTPγS binding to peptides was negligible.
Reconstitution of Go into phospholipid vesicles was accomplished with 1 mg/ml of phosphatidylcholine, using the gel filtration method (Nishimoto et al., J. Biol. Chem. 264:14029-14038, 1989). In a final incubation for GTPγS binding, 5 nM of reconstituted Go was used.
As illustrated in FIG. 1(e), Go reconstituted in phospholipid vesicles was incubated with transmembrane region-connected peptide 20 ([…], SEQ ID NO: 18; .quadrature.) or the partial sequence of the APP transmembrane domain alone (TVIVITLVML, SEQ ID NO: 7; .quadrature.). Transmembrane region-connected peptide 20 (SEQ ID NO: 18) was also incubated with Go in the absence of phospholipids and the presence of 0.07% CHAPS (.diamond-solid.). The transmembrane region-connected peptide 20 (SEQ ID NO: 18) stimulated Go reconstituted in phospholipid vesicles with a potency 10 times greater than that of peptide 20 (SEQ ID NO: 1). […]
Preactivation of pertussis toxin (Funakoshi, Japan) was carried out by treating the toxin with 100 μM ATP and 1 mM DTT for 10 min at 30° C. […] Increasing concentrations of peptide 20 (SEQ ID NO: 1) were incubated for 2 min with Go reconstituted in phospholipid vesicles which had been treated with pertussis toxin in the presence (.diamond-solid.) or absence (.quadrature.) of NAD, and GTPγS binding to Go was measured.

[4] = biological target: Trimeric Go purified from bovine brain (bovine) (UniProt P08239); assay: 22C11-precipitate of Sf9 membranes incubated with 1 µg purified Go, immunoblot
[5] = biological target: Trimeric Go purified from bovine brain (bovine) (UniProt P08239)
[6] = 10 nM Go, various peptide concentrations, 2 min, FIG. 1(d)

T1 sequence (P08239 whole entry): as the sequence (P08239 whole entry) above
T1 sequence (P62871 whole entry partner): as the sequence (P62871 whole entry partner) above
T1 sequence (P63212 1-68 partner): as the sequence (P63212 1-68 partner) above

- Go-activator function of peptide 20 variants (GTPγS binding to Go at 2 min) (Go [1]; [6]): nullified Go -activator function
Molecule: GVVEVDAAVTPEERHLSK [HH-deleted]

- Go-activator function of peptide 20 variants (GTPγS binding to Go at 2 min) (Go [1]; [6]): nullified Go -activator function
Molecule: HGVVEVDAAVTPEERHLSK [H-deleted]

Molecule: HHGVVEVDAAVTPEE [RHLSK-deleted]
- potency relative to peptide 20 in stimulating Go (Go [1]; [6]): several times less potent than peptide 20

- stimulation of c-Ki-ras p21 (c-Ki-ras p21): not stimulated
- stimulation of GTPγS binding to Go (Go [1]; low (≤100 nM) or high (≥10 mM) Mg2+ concentrations): could not be observed
Molecule: HHGVVEVDAAVTPEERHLSK [peptide 20]
- stimulation of GS (GS): not stimulated
- stimulation of Gi1 (Gi1): not stimulated
- 22C11-mediated co-precipitation of Go (APP-Go complex): prevents the 22C11-mediated co-precipitation of Go
- precipitation of APP by 22C11 (APP-Go complex): did not affect the precipitation of APP by 22C11
- stimulation of smg p25A (smg p25A): not stimulated
- stimulation of Gi3 (Gi3): not stimulated
- stimulation of Gi2 (Gi2): not stimulated
- ability to activate Go during storage (Go [2]): gradually decreased during storage
- rate constant of GTPγS binding to Go (Go [1]; 10 nM Go, increasing peptide concentrations, FIG. 1(d)): stimulated the rate constant of GTPγS binding to Go in a dose-dependent manner
- stimulation of GTPγS binding to Go (Go [1]; purified trimeric go): 2-3 fold

- 22C11-mediated co-precipitation of Go (APP-Go complex): no discernable effect
Molecule: MQQNGYENPTYKFFEQMQN [APP(677-695), peptide corresponding to C-terminal residues 677-695 of APP695, used as control peptide]

- effect on Go (GTPγS binding) [3]: without effect on Go
Molecule: TVIVITLVML [APP(639-648), a portion of the transmembrane region of APP]

- potency in stimulating Go relative to peptide 20 [3]: 10 times
- effect on Go compared with peptide 20 (Go [1]; absence of phospholipids, presence of 0.07% CHAPS, FIG. 1(e)): no more potent than peptide 20
Molecule: TVIVITLVMLHHGVVEVDAAVTPEERHLSK

- amount of reconstituted Go precipitated [4]: 0.05 µg/tube and 0.1 µg/tube
Molecule: recombinant full-length APP695 expressed in Sf9 cells (receptor)

- GTPγS binding to Go reconstituted in phospholipid vesicles (times greater potency than peptide 20) [5]: 10
B1: transmembrane region-connected peptide 20 (peptide)
peptide: TVIVITLVMLHHGVVEVDAAVTPEERHLSK
